According to patent US20260242759A1, “GQ/11 Protein Peptidomimetics” (Vrije Universiteit Brussel, priority 2022, published 2026):
Positions of bridges follow the written chain, without caps; N, C: chain ends. Non-standard residues stand in square brackets, D forms with d. Lys(N3) = [N-]=[N+]=NCCCC[C@H](N)C(=O)O; Cha = N[C@@H](CC1CCCCC1)C(=O)O; Pra = C#CC[C@H](N)C(=O)O

Experiments:
Assay in all cases: cell-based or functional assay
[1] = biological target: purified bimane labeled ghrelin receptor (human, cysmin mutant, in lipidated nanodiscs) (human) (UniProt Q92847)
[2] = biological target: T1, full-length human muscarinic 1 receptor with a FLAG tag at the N-terminus (human, UniProt P11229 1-460)
T1 sequence: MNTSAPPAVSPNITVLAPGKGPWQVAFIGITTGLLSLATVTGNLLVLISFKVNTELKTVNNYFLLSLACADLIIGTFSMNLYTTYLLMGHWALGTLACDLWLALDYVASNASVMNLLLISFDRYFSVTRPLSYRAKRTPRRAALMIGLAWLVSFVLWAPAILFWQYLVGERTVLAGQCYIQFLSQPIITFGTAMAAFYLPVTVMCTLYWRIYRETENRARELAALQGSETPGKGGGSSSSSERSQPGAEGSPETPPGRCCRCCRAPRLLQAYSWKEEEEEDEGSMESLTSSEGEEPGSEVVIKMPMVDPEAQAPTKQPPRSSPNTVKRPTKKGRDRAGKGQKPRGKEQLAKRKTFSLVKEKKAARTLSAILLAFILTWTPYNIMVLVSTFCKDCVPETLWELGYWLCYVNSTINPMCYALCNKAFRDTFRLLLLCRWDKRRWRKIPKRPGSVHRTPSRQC

[3] = biological target: T2, ghrelin receptor overexpressed on HEK293 cells (UniProt Q92847 1-366, limits assumed)
[4] = biological target: T2, ghrelin receptor overexpressed on …; remark: listed apart in the source

purified bimane labeled ghrelin receptor (human, cysmin mutant, in lipidated nanodiscs) (human), sequence (Q92847 other isoform, or with tags, fused parts or gaps mutant): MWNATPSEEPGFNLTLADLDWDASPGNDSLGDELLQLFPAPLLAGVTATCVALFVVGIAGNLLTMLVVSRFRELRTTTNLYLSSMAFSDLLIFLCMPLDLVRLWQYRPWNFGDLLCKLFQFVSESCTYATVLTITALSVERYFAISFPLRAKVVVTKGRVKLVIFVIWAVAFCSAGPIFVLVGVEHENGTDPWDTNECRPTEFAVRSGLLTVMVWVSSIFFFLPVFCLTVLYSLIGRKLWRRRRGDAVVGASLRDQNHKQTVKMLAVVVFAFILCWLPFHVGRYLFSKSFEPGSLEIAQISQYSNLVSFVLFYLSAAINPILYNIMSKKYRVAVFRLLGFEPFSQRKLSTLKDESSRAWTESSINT
T2 sequence (Q92847 whole entry): as the sequence (Q92847 other isoform, or with tags, fused parts or gaps mutant) above, with S146C, S304C counted along it

purified Gαqβ1γ2 heterotrimer
bimane maximum emission wavelength, with agonist JMV1843 [1]: 480 nm

Ac-KKKFN[Pra]CKD[Lys(N3)]ILQMNLREYN[Cha]V-OH (triazole 6-10) [SBL-GQ-12]
bimane maximum emission wavelength, with agonist JMV1843 [1]: 478 nm
IC50 (µM) of the agonist acetylcholine chloride for the M1 receptor in the presence of the peptidomimetic, RLA [2]: 13.7 µM
Shift (IC50 ratio without/with peptidomimetic), RLA [2]: 34

H-RRRRRRRRFA[Pra]VKD[Lys(N3)]ILQLNLKEYNLV-OH (triazole 11-15) [SBL-GQ-15]
EC50 (M) of the MK0677 agonist, IP-One Gq assay, SBL-GQ-15 5 µM, n = 1 [3]: 2.55e-10 M
EC50 (M) of the MK0677 agonist, IP-One Gq assay, SBL-GQ-15 5 µM, n = 2 [3]: 8.07e-11 M
EC50 (M) of the MK0677 agonist, IP-One Gq assay, peptidomimetic at 10 µM, n = 1 [4]: 2.75e-10 M
EC50 (M) of the MK0677 agonist, IP-One Gq assay, peptidomimetic at 10 µM, n = 2 [4]: 1.07e-10 M
EC50 (M) of the MK0677 agonist, IP-One Gq assay, peptidomimetic at 10 µM, n = 3 [4]: 7.18e-11 M

Ac-KKKFA[Pra]VKD[Lys(N3)]ILQLNLKEYN[Cha]V-OH (triazole 6-10) [SBL-GQ-06]
bimane maximum emission wavelength, with agonist JMV1843 [1]: 478 nm
IC50 (µM) of the agonist acetylcholine chloride for the M1 receptor in the presence of the peptidomimetic, RLA [2]: 54.4 µM
Shift (IC50 ratio without/with peptidomimetic), RLA [2]: 8

H-RRWWRRWRRFA[Pra]VKD[Lys(N3)]ILQLNLKEYNLV-OH (triazole 12-16) [SBL-GQ-25]
EC50 (M) of the MK0677 agonist, IP-One Gq assay, SBL-GQ-25 5 µM, n = 1 [3]: 7.82e-10 M
EC50 (M) of the MK0677 agonist, IP-One Gq assay, SBL-GQ-25 5 µM, n = 2 [3]: 1.7e-10 M
EC50 (M) of the MK0677 agonist, IP-One Gq assay, SBL-GQ-25 10 µM, n = 1 [3]: 1.54e-09 M
EC50 (M) of the MK0677 agonist, IP-One Gq assay, SBL-GQ-25 10 µM, n = 2 [3]: 4.65e-10 M

Ac-KKKFN[Pra]CKD[Lys(N3)]ILQMNLREYNLV-OH (triazole 6-10) [SBL-GQ-11]
bimane maximum emission wavelength, with agonist JMV1843 [1]: 478 nm
IC50 (µM) of the agonist acetylcholine chloride for the M1 receptor in the presence of the peptidomimetic, RLA [2]: 57.7 µM
Shift (IC50 ratio without/with peptidomimetic), RLA [2]: 7

Ac-KKKFA[Pra]VKD[Lys(N3)]ILQLNLKEYNLV-OH (triazole 6-10) [SBL-GQ-05]
bimane emission as percent of the effect of the Gq protein, highest peptide concentrations [1]: 90%
bimane maximum emission wavelength, with agonist JMV1843 [1]: 478 nm
IC50 (µM) of the agonist acetylcholine chloride for the M1 receptor in the presence of the peptidomimetic, RLA [2]: 330 µM
Shift (IC50 ratio without/with peptidomimetic), RLA [2]: 1
EC50 (M) of the MK0677 agonist, IP-One Gq assay, peptidomimetic at 10 µM, n = 1 [4]: 9.99e-10 M
EC50 (M) of the MK0677 agonist, IP-One Gq assay, peptidomimetic at 10 µM, n = 2 [4]: 1.53e-10 M
EC50 (M) of the MK0677 agonist, IP-One Gq assay, peptidomimetic at 10 µM, n = 3 [4]: 1.1e-10 M

B1: SBL-GQ-04 (peptide)
peptide: Ac-KKKFAAVKDTILQLNLKEYN[Cha]V-OH
SMILES: CC[C@H](C)[C@H](NC(=O)[C@@H](NC(=O)[C@H](CC(=O)O)NC(=O)[C@H](CCCCN)NC(=O)[C@@H](NC(=O)[C@H](C)NC(=O)[C@H](C)NC(=O)[C@H](Cc1ccccc1)NC(=O)[C@H](CCCCN)NC(=O)[C@H](CCCCN)NC(=O)[C@H](CCCCN)NC(C)=O)C(C)C)[C@@H](C)O)C(=O)N[C@@H](CC(C)C)C(=O)N[C@@H](CCC(N)=O)C(=O)N[C@@H](CC(C)C)C(=O)N[C@@H](CC(N)=O)C(=O)N[C@@H](CC(C)C)C(=O)N[C@@H](CCCCN)C(=O)N[C@@H](CCC(=O)O)C(=O)N[C@@H](Cc1ccc(O)cc1)C(=O)N[C@@H](CC(N)=O)C(=O)N[C@@H](CC1CCCCC1)C(=O)N[C@H](C(=O)O)C(C)C
IC50 (µM) of the agonist acetylcholine chloride for the M1 receptor in the presence of the peptidomimetic, RLA [2]: 213 µM
Shift (IC50 ratio without/with peptidomimetic), RLA [2]: 4
EC50 (M) of the MK0677 agonist, IP-One Gq assay, SBL-GQ-04 5 µM, n = 1 [3]: 3.18e-10 M
EC50 (M) of the MK0677 agonist, IP-One Gq assay, SBL-GQ-04 5 µM, n = 2 [3]: 1.41e-10 M
EC50 (M) of the MK0677 agonist, IP-One Gq assay, peptidomimetic at 10 µM, n = 1 [4]: 4.42e-10 M
EC50 (M) of the MK0677 agonist, IP-One Gq assay, peptidomimetic at 10 µM, n = 2 [4]: 9.46e-11 M
EC50 (M) of the MK0677 agonist, IP-One Gq assay, peptidomimetic at 10 µM, n = 3 [4]: 9.87e-11 M
